The results in this text go back to publication PMC12578939.

The target in this assay is microtubules polymerised from bovine brain tubulin (bovine) (UniProt Q6B856). Kind of assay: TIRF microscopy of binding to immobilised microtubules.

As to “augmin octamer lacking the N-terminal MTBR of Haus8 (residues 1-154) (from UniProt Q0IHJ3;Q6DCY9) (complex)”, the reduction in MT binding against wildtype augmin was found to be 50%.
